Experimental data from patent US20200377595A1 (Chugai, published 2020).
“And” between values parts separate entries of the source, which are not always exact repeats. Identical values can stand only once.

Target: biotinylated CD3 epsilon epitope peptide
Experiment: SPR, one-arm Ab

| Kd | Binder |
| --- | --- |
| 20 nM and 27 nM | CE115HA340 one-arm antibody (antibody, human IgG1, kappa, L234A L235A, N297A, one-arm antibody) VH: QVQLVESGGGLVQPGRSLRLSCAASGFTFSNAWMHWVRQAPGKGLEWVAQIKDKSNNYATYYAESVKGRFTISRDDSKNSIYLQMNSLKTEDTAVYYCRYVHYAAYYGVDAWGQGTTVTVSSASTKGPSVFPLAPSSKSTSGGTAALGCLVKDYFPEPVTVSWNSGALTSGVHTFPAVLQSSGLYSLSSVVTVPSSSLGTQTYICNVNHKPSNTKVDKKVEPKSCDKTHTCPPCPAPEAAGGPSVFLFPPKPKDTLMISRTPEVTCVVVDVSHEDPEVKFNWYVDGVEVHNAKTKPREEQYASTYRVVSVLTVLHQDWLNGKEYKCKVSNKALPAPIEKTISKAKGQPREPQVYTLPPSRCELTKNQVSLSCAVKGFYPSDIAVEWESNGQPENNYKTTPPVLDSDGSFFLVSKLTVDKSRWQQGNVFSCSVMHEALHNHYTQKSLSLSPDYKDDDDK EPKSSDKTHTCPPCPAPELLGGPSVFLFPPKPKDTLMISRTPEVTCVVVDVSHEDPEVKFNWYVDGVEVHNAKTKPREEQYNSTYRVVSVLTVLHQDWLNGKEYKCKVSNKALPAPIEKTISKAKGQPREPQVCTLPPSRDELTKNQVSLWCLVKGFYPSDIAVEWESNGQPENNYKTTPPVLDSDGSFFLYSKLTVDKSRWQQGNVFSCSVMHEALHNRYTQKSLSLSP light: DIVMTQSPLSLPVTPGEPASISCRSSQSLVHSNRNTYLHWYQQKPGQAPRLLIYKVSNRFSGVPDRFSGSGSGTDFTLKISRVEAEDVGVYYCGQGTQVPYTFGQGTKLEIKRTVAAPSVFIFPPSDEQLKSGTASVVCLLNNFYPREAKVQWKVDNALQSGNSQESVTEQDSKDSTYSLSSTLTLSKADYEKHKVYACEVTHQGLSSPVTKSFNRGEC |
| 74 nM | NHS6f17 (antibody) chain 1: QVQLVESGGGLVQPGRSLRLSCAASGFTFSNAWMHWVRQAPGKGLEWVAQIKDKSNNYATYYAESVKGRFTISRDDSKNSIYLQMNSLKTEDTAVYYCRYVHYAAWGEGVVYYGVDAWGQGTTVTVSSASTKGPSVFPLAPSSKSTSGGTAALGCLVKDYFPEPVTVSWNSGALTSGVHTFPAVLQSSGLYSLSSVVTVPSSSLGTQTYICNVNHKPSNTKVDKKVEPKSCDKTHTCPPCPAPEAAGGPSVFLFPPKPKDTLMISRTPEVTCVVVDVSHEDPEVKFNWYVDGVEVHNAKTKPREEQYASTYRVVSVLTVLHQDWLNGKEYKCKVSNKALPAPIEKTISKAKGQPREPQVYTLPPSRCELTKNQVSLSCAVKGFYPSDIAVEWESNGQPENNYKTTPPVLDSDGSFFLVSKLTVDKSRWQQGNVFSCSVMHEALHNHYTQKSLSLSPDYKDDDDK chain 2: EPKSSDKTHTCPPCPAPELLGGPSVFLFPPKPKDTLMISRTPEVTCVVVDVSHEDPEVKFNWYVDGVEVHNAKTKPREEQYNSTYRVVSVLTVLHQDWLNGKEYKCKVSNKALPAPIEKTISKAKGQPREPQVCTLPPSRDELTKNQVSLWCLVKGFYPSDIAVEWESNGQPENNYKTTPPVLDSDGSFFLYSKLTVDKSRWQQGNVFSCSVMHEALHNRYTQKSLSLSP chain 3: DIVMTQSPLSLPVTPGEPASISCRSSQSLVHSNRNTYLHWYQQKPGQAPRLLIYKVSNRFSGVPDRFSGSGSGTDFTLKISRVEAEDVGVYYCGQGTQVPYTFGQGTKLEIKRTVAAPSVFIFPPSDEQLKSGTASVVCLLNNFYPREAKVQWKVDNALQSGNSQESVTEQDSKDSTYSLSSTLTLSKADYEKHKVYACEVTHQGLSSPVTKSFNRGEC |
